Measurements as given in patent publication US20210285971.

Assays:
[1] = target: synthetic Aβ42 peptide, P05067
[2] = target: synthetic Aβ40 peptide, P05067
Chain of synthetic Aβ40 peptide, P05067 (P05067 whole entry, looked up, tested part not stated): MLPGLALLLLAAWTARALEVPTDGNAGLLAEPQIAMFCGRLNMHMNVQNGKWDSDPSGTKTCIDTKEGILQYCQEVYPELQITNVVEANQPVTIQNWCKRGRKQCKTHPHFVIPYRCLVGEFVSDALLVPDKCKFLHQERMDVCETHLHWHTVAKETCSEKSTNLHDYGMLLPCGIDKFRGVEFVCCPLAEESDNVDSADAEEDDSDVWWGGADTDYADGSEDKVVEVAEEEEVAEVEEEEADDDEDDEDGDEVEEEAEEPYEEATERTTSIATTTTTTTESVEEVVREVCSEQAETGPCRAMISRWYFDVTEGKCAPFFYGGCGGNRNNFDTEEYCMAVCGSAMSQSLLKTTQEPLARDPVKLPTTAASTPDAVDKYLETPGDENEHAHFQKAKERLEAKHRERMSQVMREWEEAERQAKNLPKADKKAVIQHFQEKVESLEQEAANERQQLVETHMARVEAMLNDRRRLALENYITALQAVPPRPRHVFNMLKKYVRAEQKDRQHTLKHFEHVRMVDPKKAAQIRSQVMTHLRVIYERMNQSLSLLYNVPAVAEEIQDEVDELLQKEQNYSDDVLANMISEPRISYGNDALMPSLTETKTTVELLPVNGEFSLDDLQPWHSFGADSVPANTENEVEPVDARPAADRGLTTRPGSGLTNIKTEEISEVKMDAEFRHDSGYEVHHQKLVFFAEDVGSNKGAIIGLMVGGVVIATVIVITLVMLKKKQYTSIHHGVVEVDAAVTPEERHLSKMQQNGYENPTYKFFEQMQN

Chain of synthetic Aβ42 peptide, P05067 (P05067 whole entry, looked up, tested part not stated): as above

B1: BACE1 from Fc purification (protein)
chain: ETDEEPEEPGRRGSFVEMVDNLRGKSGQGYYVEMTVGSPPQTLNILVDTGSSNFAVGAAPHPFLHRYYQRQLSSTYRDLRKGVYVPYTQGKWEGELGTDLVSIPHGPNVTVRANIAAITESDKFFINGSNWEGILGLAYAEIARPDDSLEPFFDSLVKQTHVPNLFSLQLCGAGFPLNQSEVLASVGGSMIIGGIDHSLYTGSLWYTPIRREWYYEVIIVRVEINGQDLKMDCKEYNYDKSIVDSGTTNLRLPKKVFEAAVKSIKAASSTEKFPDGFWLGEQLVCWQAGTTPWNIFPVISLYLMGEVTNQSFRITILPQQYLRPVEDVATSQDDCYKFAISQSSTGTVMGAVIMEGFYVVFDRARKRIGFAVSACHVHDEFRTAAVEGPFVTLDMEDCGYNIPQTDESTLMTIAY
cleavage in vitro analyzed by MALDI-MS [1]: cleavage of Aβ40 and Aβ42 by BACE1 in vitro
cleavage in vitro analyzed by MALDI-MS [2]: cleavage of Aβ40 and Aβ42 by BACE1 in vitro
